Consider nine molecules from paper PMC10949315, “RrA, an enzyme from Rhodospirillum rubrum, is a prototype of a new family of short‐chain L‐asparaginases” (Protein Science : A Publication of the Protein Society, 2024).

Series [1] deals with T1, RrA (Rhodospirillum rubrum, UniProt Q2RMX1).
T1 construct: gene Rru_A3730; full length, 172 residues, Lys149 natural variant (Glu149 in the first report); synthetic gene in pET15b, N-terminal His6 tag removed by TEV protease, expressed in E. coli BL21(DE3) RIPL; homotetramer, active site completed by Tyr21 and Asn26 of another protomer
T1 sequence (Q2RMX1 1-172): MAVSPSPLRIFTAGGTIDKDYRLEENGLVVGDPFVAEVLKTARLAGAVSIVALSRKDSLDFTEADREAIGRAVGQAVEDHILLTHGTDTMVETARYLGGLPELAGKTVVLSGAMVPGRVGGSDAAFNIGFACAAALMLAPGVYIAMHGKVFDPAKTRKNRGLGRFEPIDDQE
Nature of the series: nanoDSF back-reflection, aggregation onset. It counts as binding. As to conditions: 20 mM ligand, 0.1 M Na-citrate pH 5.0, 0.2 M NaCl; 42.3 °C without ligand. (In DSF a fluorescence change marks the thermal transition of the protein.)

The target of series [2] is T2, RrA (Rhodospirillum rubrum, UniProt Q2RMX1, Y21F).
T2 construct: gene Rru_A3730; full length, 172 residues, Lys149 natural variant (Glu149 in the first report); synthetic gene in pET15b, N-terminal His6 tag removed by TEV protease, expressed in E. coli BL21(DE3) RIPL; homotetramer, active site completed by Tyr21 and Asn26 of another protomer
T2 sequence (Q2RMX1 entry or part of it Y21F): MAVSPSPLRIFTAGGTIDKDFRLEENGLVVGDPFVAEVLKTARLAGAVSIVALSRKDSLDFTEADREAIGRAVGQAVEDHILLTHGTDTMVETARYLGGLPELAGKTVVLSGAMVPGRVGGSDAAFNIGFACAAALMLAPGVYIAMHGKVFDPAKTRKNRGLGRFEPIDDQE
Nature of the series: X-ray crystal structure, […] Å. The settings on record: active site, three of four protomers; also 8up3 (co-purified L-Asp in some protomers). The format is binding.

For series [3], the target named is RrA(K19A) (Rhodospirillum rubrum). Kind of series: crystal structure; hanging drops, 293 K, protein 19-21 mg/mL in the standard buffer, with or without L-Asp; tetramer as a dimer of tight dimers, in the asymmetric unit or made by crystal symmetry.
Series [4] shares this target. Nature of the series: dynamic light scattering; protein at 0.22-1.1 mM in the standard buffer (50 mM HEPES, 200 mM NaCl, pH 7), 20°C, DynaPro Nanostar; proteins modelled as globular; oligomer in solution.
The target of series [5] is RrA(K19E) (Rhodospirillum rubrum). Kind of series: crystal structure; hanging drops, 293 K, protein 19-21 mg/mL in the standard buffer, with or without L-Asp; tetramer as a dimer of tight dimers, in the asymmetric unit or made by crystal symmetry.
Series [6] has the same target. Kind of series: dynamic light scattering; protein at 0.22-1.1 mM in the standard buffer (50 mM HEPES, 200 mM NaCl, pH 7), 20°C, DynaPro Nanostar; proteins modelled as globular; oligomer in solution.
Series [7] addresses RrA(K19Q) (Rhodospirillum rubrum). Nature of the series: crystal structure; hanging drops, 293 K, protein 19-21 mg/mL in the standard buffer, with or without L-Asp; tetramer as a dimer of tight dimers, in the asymmetric unit or made by crystal symmetry.
For series [8] the target is unchanged. Kind of series: dynamic light scattering; protein at 0.22-1.1 mM in the standard buffer (50 mM HEPES, 200 mM NaCl, pH 7), 20°C, DynaPro Nanostar; proteins modelled as globular; oligomer in solution.
Series [9] has as its target RrA(K158M) (Rhodospirillum rubrum). Kind of series: crystal structure; hanging drops, 293 K, protein 19-21 mg/mL in the standard buffer, with or without L-Asp; tetramer as a dimer of tight dimers, in the asymmetric unit or made by crystal symmetry.
The target is the same in series [10]. Kind of series: dynamic light scattering; protein at 0.22-1.1 mM in the standard buffer (50 mM HEPES, 200 mM NaCl, pH 7), 20°C, DynaPro Nanostar; proteins modelled as globular; oligomer in solution.
Series [11] has as its target RrA(Y21A) (Rhodospirillum rubrum). Kind of series: crystal structure; hanging drops, 293 K, protein 19-21 mg/mL in the standard buffer, with or without L-Asp; tetramer as a dimer of tight dimers, in the asymmetric unit or made by crystal symmetry.
The target is the same in series [12]. Kind of series: dynamic light scattering; protein at 0.22-1.1 mM in the standard buffer (50 mM HEPES, 200 mM NaCl, pH 7), 20°C, DynaPro Nanostar; proteins modelled as globular; oligomer in solution.
The target of series [13] is RrA(Y21F) (Rhodospirillum rubrum). Nature of the series: crystal structure; hanging drops, 293 K, protein 19-21 mg/mL in the standard buffer, with or without L-Asp; tetramer as a dimer of tight dimers, in the asymmetric unit or made by crystal symmetry.
The target is the same in series [14]. Nature of the series: dynamic light scattering; protein at 0.22-1.1 mM in the standard buffer (50 mM HEPES, 200 mM NaCl, pH 7), 20°C, DynaPro Nanostar; proteins modelled as globular; oligomer in solution.
Series [15] concerns the molecule itself. The series is described as above.
Substrate in series [16]: NC(=O)C[C@H](N)C(=O)O
Kind of series: ammonia release by Nessler's reagent, A480; Lineweaver-Burk. As to conditions: PBS pH 7.4, 20 °C, substrate inhibition above 5 mM. It counts as biochemical, Rhodospirillum rubrum.

Series [17] deals with the molecule itself. Nature of the series: mass photometry; RrA(wt) at 25 nM and 65 nM in the standard buffer (50 mM HEPES, 200 mM NaCl, pH 7), 20°C, Refeyn TwoMP; minor lower-mass peak only in the 25 nM sample.

Turning to `N[C@@H](CC(=O)O)C(=O)O` [L‐Asp], the T agg in series [1] came to 61.3 °C. In addition, in series [2], the “X-ray crystal structure, 1.90 Å” value was “the ligand was present in three out of four protomers”.

In turn, `N[C@@H](CCC(=O)O)C(=O)O` [L‐Glu] yielded a T agg in [1] of 61.5 °C.

Usually stoichiometry N stands for the number of molecules, sites or subunits per partner or assembly. With RrA(K19A) (enzyme), the stoichiometry N in series [3] and in [4] was 4 each time.

Regarding RrA(K19E) (enzyme), the stoichiometry N in series [5] and in [6] was 4 in each case.

Turning to RrA(K19Q) (enzyme), the stoichiometry N in series [7] and in [8] was 4 in each case.

For the molecule RrA(K158M) (enzyme), the stoichiometry N in series [9] and in series [10] was 4 in each case.

As to RrA(Y21A) (enzyme), the stoichiometry N in series [11] and in [12] was 4 throughout.

With RrA(Y21F) (enzyme), the stoichiometry N in [13] and in [14] was 4 throughout.

B1: RrA(wt), short-chain L-asparaginase from Rhodospirillum rubrum (enzyme, UniProt Q2RMX1 1-172, looked up)
chain: MAVSPSPLRIFTAGGTIDKDYRLEENGLVVGDPFVAEVLKTARLAGAVSIVALSRKDSLDFTEADREAIGRAVGQAVEDHILLTHGTDTMVETARYLGGLPELAGKTVVLSGAMVPGRVGGSDAAFNIGFACAAALMLAPGVYIAMHGKVFDPAKTRKNRGLGRFEPIDDQE
notes: L-asparaginase RrA of Rhodospirillum rubrum, synthetic gene of GenBank QXG80441.1; protomer of 172 residues (Met1 traced in the structure); the GenBank entry and the PDB entries hold; source: E. coli BL21(DE3) RIPL, pET15b, purified (HisTrap, TEV cleavage, second HisTrap flow-through, Superdex 75); not shown: His6, N-terminal, cleaved
In general, Km refers to the concentration of substrate that gives half-maximal velocity. What is called kcat is the maximal rate divided by the concentration of active sites. As to B1, the “stoichiometry N” value in [15] is 4. For the same molecule, in series [16], the Michaelis constant (Km) is 3.6 ± 0.3 mM and the kcat stood at 58.2 ± 3.0 s⁻¹. The “stoichiometry N” value in series [17] amounted to 2.
